Here are results for 2 substances from PMC11440607 (Journal of Medicinal Chemistry, 2024).

Some results are limits rather than exact numbers.

Common to all, as to format: physicochemical
Series [1] can be described thus: Amyloid aggregation propensity by thioflavin-T (ThT) fluorescence. The source says:
(§1) The pH-sensitive, reversible amyloid aggregation of GLP-1 and related gastrointestinal hormones is an inherent and functionally critical property. They are stored as condensed amyloids at low pH before being released as monomeric, folded hormones at neutral pH. At the same time, the exact evolutionary origin[45] of Ex4 with its functional role as a salivary toxin in lizards remains unknown.[45],[46] The difference in secretion pathways is notable: GLP-1 is secreted into the bloodstream, while Ex4 is secreted into the alimentary canal. […] In terms of structure, the polyproline tail of the Ex4 Tc fold effectively shields the −^21LFIEWL^26− aggregation-prone region[40] (APR) of the facing α-helix, while the similar −^21EFIAWL^26− helical segment of GLP-1 remains unshielded. We therefore investigated the short- and long-term aggregation behavior of GLP-1, Ex4, and related Tc5b-modified variants using an amyloid-specific thioflavin-T fluorescence assay, CD spectroscopy, and atomic force microscopy (AFM) at 37 °C (Figure 5).
The exact peptide content percentage of the lyophilized peptides was determined by using a Nanodrop Lite UV–vis spectrophotometer at 280 nm. […] The exact concentration was determined by UV spectrometry using a Jasco V-660 spectrophotometer (Tokyo, Japan) at 412 nm with an extinction coefficient of 31.600 M^–1 cm^–1. […] A SpectraMax iD3 microplate reader (Molecular Devices, Sunnyvale, CA, USA) was used to control the experimental conditions (37 °C, orbital shaking at medium intensity) and to collect fluorescence data over 3 days. […] The emitted fluorescence was measured from the bottom of the microplate with medium photomultiplier tube sensitivity (PMT) settings and an integration time of 400 ms. […] The average fluorescence intensity of the peptide-free ThT sample was used as a background and subtracted from the average fluorescence intensity of the peptide-containing samples at each measurement point. The mean and standard deviation of ThT fluorescence intensities were plotted as a function of time using Origin software version 2022b and Excel software version 2020.

Series [2] in a line: Long-term aggregation monitored by CD spectroscopy. The following applies: pH 7.4, 1 mg mL-1, 150 mM NaCl, 37 °C, 500 rpm, two weeks.
From the text: as §1, with “(APR) of the facing α-helix, while the similar −^21EFIAWL^26− helical segment of GLP-1 remains unshielded.” left out
Circular dichroism (CD) experiments were performed using JASCO J-810 and J-1500 spectropolarimeters. […] Melting curves were recorded in the temperature range of 5–85 °C in 5 °C increments. […] Exact concentrations were determined by using a Nanodrop Lite UV–vis spectrophotometer at 280 nm. To determine the folded fraction (F%), the temperature-dependent spectrum collection of 65 CD curves was analyzed using Convex Constraint Analysis Plus software.[59] […]

Series [3] in a line: Atomic force microscopy of aggregation samples. The method, then: Ten μL aliquots were taken from the ThT and CD measurement samples at the end point of the experiments, after 3 days and 2 weeks of agitation, respectively. These aliquots were then spread on freshly cleaved mica surfaces and dried overnight in a vacuum desiccator. In some cases, the spread samples were washed with pH-adjusted water to remove any salts that might crystallize during the drying process and potentially complicate the AFM micrograph recording. The surface morphology was analyzed using a FlexAFM microscope system (Nanosurf AG, Liestal, Switzerland) operating in dynamic mode, controlled by Nanosurf control software C3000 version 3.10.4. Micrographs were taken using Tap150GD-G cantilevers (BudgetSensors Ltd., Sofia, Bulgaria) with a nominal tip radius of less than 10 nm. Prescreening was run before data collection to avoid significant height variations in the surface topology. Data collection was performed at different locations within each sample. Images were recorded with a maximum window size of 10 × 10 μm at a resolution of 512 pixels/line. Gwyddion 2.62 software was used to process the AFM data and generate the images.

For the substance Exendin-4 [Ex4], in series [1] (ThT, CD and AFM, 37 °C, acidic and neutral pH, 1 and 5 mg mL–1), the “amyloid formation / aggregation propensity” value is recorded as “did not exhibit any evidence of amyloid formation”.

glucagon-like peptide-1 [GLP-1]: the “thioflavin-T response under acidic conditions” value in series [1] (ThT fluorescence, pH 4.2–4.5, 1 and 5 mg mL–1, 37 °C, orbital shaking, 3 days, triplicate) is recorded as “exceeded the limit of detection range”. In addition, the “time to amyloid fibril formation under acidic conditions” value in series [1] (acidic conditions, concentration-dependent, 37 °C) is no more than 1 days. Further, in series [2], the “amyloid formation under neutral pH conditions” value was “forms amyloid assemblies under neutral pH conditions, albeit in two weeks”. Moreover, in series [3] (72 h agitated acidic ThT samples, 1 mg mL–1), the “fibril formation by AFM” value is “reveal fibril formation”. The “diameter of twisted amyloid fibrils” value in series [3] (AFM, acidic conditions) is given as 5–10 nm.
